From patent US20260258141A1 (BIOCYTOGEN PHARMACEUTICALS BEIJING, published 2026)

Tests used:
[1] = molecular target: T1, His-tagged human IGF1R protein (ACRO Biosystems Inc., Cat #: IGR-H5229) (human, UniProt P08069 31-932); test: SPR (Biacore 8K) on captured hIGF1R-His, binder injected second (Analyte 2); competitor injected first (Analyte 1): Teprotumumab analog
T1 construct: Bought protein; also called hIGF1R-His; not shown: His tag
Protocol: (§1) Epitope binding assays were performed using Biacore™ 8K biosensor to determine whether two anti-IGF1R antibodies target the same or overlapping epitopes. 1×HBS-EP+ buffer (10 mM 4-(2-hydroxyethyl)-1-piperazineethanesulfonic acid (HEPES), 150 mM NaCl, 3 mM ethylenediaminetetraacetic acid (EDTA) and 0.05% P20, pH7.4) diluted from HBS-EP+buffer (10×) was used as the running buffer throughout the experiment. About 50 RU of hIGF1R-His was captured at a flow rate of 10 μL/min, and 200 nM of the tested antibody (Analyte 1) was injected at a flow rate of 30 uL/min to bind the ligand. Another comparison antibody (Analyte 2) was injected under the same conditions to determine whether the binding of different antibodies interfered with each other. The binding time was 180 s for each antibody.
(§2) The binding value of each antibody was obtained using Biacore Insight Evaluation (Version: 2.0.15.12933). To quantify the interference of one antibody binding to another, a binding ratio was calculated to compare each pair of antibodies. The binding ratio is defined as the binding value of the second antibody (Analyte 2) divided by the binding value of the first antibody (Analyte 1). The threshold to determine the block or non-block is 0.3.

[2] = molecular target: T2, human IGF1R (insulin-like growth factor 1 receptor) on cells (human, UniProt P08069 31-1367); test: cell-based or functional assay
[3] = molecular target: T2, human IGF1R (insulin-like growth factor …); test: flow cytometry on CHO-S-hIGF1R cells, antibody 20 µg/mL
Protocol: (§3) INSR (insulin receptor) and IGF1R are both members of the superfamily of receptor tyrosine kinases (RTKs). The binding activity of anti-IGF1R antibodies to human IGF1R, human INSR and monkey IGF1R was verified by flow cytometry. Briefly, CHO-S-hIGF1R cells (expressing human IGF1R (SEQ ID NO: 45), CHO-S-fasIGF1R cells (expressing cynomolgus monkey IGF1R (SEQ ID NO: 46) and CHO-S-hINSR (expressing SEQ ID NO: 47) were plated in a 96-well plate at a density of 2×10⁵ cells/well respectively. Purified anti-IGF1R antibody with a concentration of 20 μg/mL was added to each well and was incubated at 4° C. for 30 minutes. Then, after one wash with PBS, the cells were incubated with the secondary antibody Alexa Fluor® 647 anti-human IgG Fcγ (Jackson ImmunoResearch Laboratories, Inc., Cat #: 109-606-170) at 4° C. for 15 minutes before flow cytometry analysis. Human IgG1 was used as ISO control.

[4] = molecular target: T2, human IGF1R (insulin-like growth factor …); test: cell-based or functional assay; remark: listed apart in the source
[5] = molecular target: His-tagged cynomolgus monkey IGF1R protein (ACRO Biosystems Inc., Cat #: IGR-C5225) (cynomolgus monkey); test: SPR (Biacore 8K), antibody captured on Protein A chip, antigen as analyte, 1:1 model
[6] = molecular target: T2, human IGF1R (insulin-like growth factor …); test: cell-based or functional assay; remark: listed apart in the source
[7] = molecular target: T2, human IGF1R (insulin-like growth factor …); test: cell-based or functional assay; remark: listed apart in the source
[8] = molecular target: T1, His-tagged human IGF1R protein (ACRO …); test: SPR (Biacore 8K) on captured hIGF1R-His, binder injected second (Analyte 2); competitor injected first (Analyte 1): 10G1
Protocol: as §1, §2

[9] = molecular target: T3, cynomolgus monkey IGF1R on cells (cynomolgus monkey, UniProt P08069 31-1367 (human entry)); test: flow cytometry on CHO-S-fasIGF1R cells, antibody 20 µg/mL
T3 construct: Expressed on CHO-S cells; also called fasIGF1R; CHO-S-fasIGF1R cells
Protocol: as §3

[10] = molecular target: T1, His-tagged human IGF1R protein (ACRO …); test: SPR (Biacore 8K) on captured hIGF1R-His, binder injected second (Analyte 2); competitor injected first (Analyte 1): 10D1
Protocol: as §1, §2

[11] = molecular target: T1, His-tagged human IGF1R protein (ACRO …); test: SPR (Biacore 8K), antibody captured on Protein A chip, antigen as analyte, 1:1 model
Protocol: The affinity of the anti-IGF1R antibodies to His-tagged human IGF1R protein (hIGF1R-His, ACRO Biosystems Inc., Cat #: IGR-H5229) and His-tagged cynomolgus monkey IGF1R protein (cIGF1R-His, ACRO Biosystems Inc., Cat #: IGR-C5225) were measured using surface plasmon resonance (SPR) using Biacore™ (Biacore, Inc., Piscataway N.J.) 8K biosensor equipped with pre-immobilized Protein A sensor chips.
Purified anti-IGF1R antibodies were captured on the Protein A chip (Series S Sensor Chip Protein A) for the detection. 1 μg/mL or 10 μg/mL purified anti-IGF1R antibodies was loaded at 10 μL/min to bind to a gradient concentration of recombinant hIGF1R-His or cIGF1R-His (400 nM, 200 nM, 100 nM, 50 nM, 25 nM, 12.5 nM, 6.25 nM, 3.125 nM). The flow rate was 30 μL/min, the binding and dissociation time were set to 180 s and 800 s or 1200 s, respectively. The chip was regenerated after the last injection of each titration with a glycine solution (pH 2.0) at 30 μL/min for 30 seconds.

[12] = molecular target: T1, His-tagged human IGF1R protein (ACRO …); test: SPR (Biacore 8K) on captured hIGF1R-His, binder injected second (Analyte 2); competitor injected first (Analyte 1): 12A4
Protocol: as §1, §2

T2 sequence (P08069 31-1367 limits assumed): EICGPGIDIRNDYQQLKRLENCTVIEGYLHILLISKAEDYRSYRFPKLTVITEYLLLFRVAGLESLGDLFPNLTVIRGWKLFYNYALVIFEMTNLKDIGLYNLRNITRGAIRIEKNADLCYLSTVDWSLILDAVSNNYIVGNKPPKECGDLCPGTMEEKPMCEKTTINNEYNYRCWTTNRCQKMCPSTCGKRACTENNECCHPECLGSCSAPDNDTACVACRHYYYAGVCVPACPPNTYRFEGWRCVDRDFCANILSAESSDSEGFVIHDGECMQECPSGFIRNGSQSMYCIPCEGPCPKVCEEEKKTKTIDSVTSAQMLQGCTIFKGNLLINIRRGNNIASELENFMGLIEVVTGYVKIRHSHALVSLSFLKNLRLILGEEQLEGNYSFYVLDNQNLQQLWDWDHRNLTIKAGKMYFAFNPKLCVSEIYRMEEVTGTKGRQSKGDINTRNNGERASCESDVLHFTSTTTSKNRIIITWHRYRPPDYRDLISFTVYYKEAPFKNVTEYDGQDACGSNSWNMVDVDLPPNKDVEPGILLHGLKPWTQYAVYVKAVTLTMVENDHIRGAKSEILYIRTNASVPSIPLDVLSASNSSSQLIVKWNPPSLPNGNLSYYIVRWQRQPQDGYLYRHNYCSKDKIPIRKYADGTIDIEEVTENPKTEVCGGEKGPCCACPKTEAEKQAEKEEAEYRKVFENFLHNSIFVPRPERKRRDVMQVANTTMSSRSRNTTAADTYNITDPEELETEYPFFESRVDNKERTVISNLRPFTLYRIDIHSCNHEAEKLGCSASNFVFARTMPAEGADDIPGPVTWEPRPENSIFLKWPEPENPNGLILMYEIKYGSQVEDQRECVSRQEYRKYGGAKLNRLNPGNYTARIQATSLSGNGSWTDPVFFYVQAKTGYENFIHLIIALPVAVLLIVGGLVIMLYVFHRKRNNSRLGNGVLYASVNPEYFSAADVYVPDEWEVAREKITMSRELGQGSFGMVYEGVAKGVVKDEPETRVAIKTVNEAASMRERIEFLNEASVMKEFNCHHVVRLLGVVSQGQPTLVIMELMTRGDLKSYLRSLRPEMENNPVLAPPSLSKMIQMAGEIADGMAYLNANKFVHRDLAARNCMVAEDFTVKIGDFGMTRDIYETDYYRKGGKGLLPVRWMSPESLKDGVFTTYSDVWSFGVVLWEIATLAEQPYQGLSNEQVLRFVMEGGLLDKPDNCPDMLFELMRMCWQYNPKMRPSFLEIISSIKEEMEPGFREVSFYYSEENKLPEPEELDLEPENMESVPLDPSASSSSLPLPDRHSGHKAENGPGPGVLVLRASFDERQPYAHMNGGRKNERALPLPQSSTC
T1 sequence (P08069 31-932): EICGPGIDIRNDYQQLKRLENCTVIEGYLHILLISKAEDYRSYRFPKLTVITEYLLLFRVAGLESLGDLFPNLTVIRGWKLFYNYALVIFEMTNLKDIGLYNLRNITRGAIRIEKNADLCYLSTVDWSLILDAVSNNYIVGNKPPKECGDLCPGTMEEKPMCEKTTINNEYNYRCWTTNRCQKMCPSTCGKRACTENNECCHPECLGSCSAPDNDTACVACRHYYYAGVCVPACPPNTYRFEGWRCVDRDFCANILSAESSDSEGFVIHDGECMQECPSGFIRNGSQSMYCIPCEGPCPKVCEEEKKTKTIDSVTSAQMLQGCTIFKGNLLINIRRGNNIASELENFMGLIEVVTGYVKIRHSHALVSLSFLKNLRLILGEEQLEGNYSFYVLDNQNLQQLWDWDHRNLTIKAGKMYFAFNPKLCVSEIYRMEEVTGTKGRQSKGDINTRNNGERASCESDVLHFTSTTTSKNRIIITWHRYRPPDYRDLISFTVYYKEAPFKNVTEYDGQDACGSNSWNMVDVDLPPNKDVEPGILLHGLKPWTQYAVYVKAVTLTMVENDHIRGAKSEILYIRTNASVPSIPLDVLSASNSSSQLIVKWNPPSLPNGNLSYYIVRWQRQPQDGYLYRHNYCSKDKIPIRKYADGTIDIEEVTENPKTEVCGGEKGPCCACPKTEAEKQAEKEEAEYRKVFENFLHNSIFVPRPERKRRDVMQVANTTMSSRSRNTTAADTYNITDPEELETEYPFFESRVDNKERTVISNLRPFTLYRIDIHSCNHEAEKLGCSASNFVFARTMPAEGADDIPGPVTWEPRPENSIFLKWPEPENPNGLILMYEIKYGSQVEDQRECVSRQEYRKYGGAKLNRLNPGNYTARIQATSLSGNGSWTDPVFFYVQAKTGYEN
T3 sequence (P08069 other isoform, or with tags, fused parts or gaps limits assumed): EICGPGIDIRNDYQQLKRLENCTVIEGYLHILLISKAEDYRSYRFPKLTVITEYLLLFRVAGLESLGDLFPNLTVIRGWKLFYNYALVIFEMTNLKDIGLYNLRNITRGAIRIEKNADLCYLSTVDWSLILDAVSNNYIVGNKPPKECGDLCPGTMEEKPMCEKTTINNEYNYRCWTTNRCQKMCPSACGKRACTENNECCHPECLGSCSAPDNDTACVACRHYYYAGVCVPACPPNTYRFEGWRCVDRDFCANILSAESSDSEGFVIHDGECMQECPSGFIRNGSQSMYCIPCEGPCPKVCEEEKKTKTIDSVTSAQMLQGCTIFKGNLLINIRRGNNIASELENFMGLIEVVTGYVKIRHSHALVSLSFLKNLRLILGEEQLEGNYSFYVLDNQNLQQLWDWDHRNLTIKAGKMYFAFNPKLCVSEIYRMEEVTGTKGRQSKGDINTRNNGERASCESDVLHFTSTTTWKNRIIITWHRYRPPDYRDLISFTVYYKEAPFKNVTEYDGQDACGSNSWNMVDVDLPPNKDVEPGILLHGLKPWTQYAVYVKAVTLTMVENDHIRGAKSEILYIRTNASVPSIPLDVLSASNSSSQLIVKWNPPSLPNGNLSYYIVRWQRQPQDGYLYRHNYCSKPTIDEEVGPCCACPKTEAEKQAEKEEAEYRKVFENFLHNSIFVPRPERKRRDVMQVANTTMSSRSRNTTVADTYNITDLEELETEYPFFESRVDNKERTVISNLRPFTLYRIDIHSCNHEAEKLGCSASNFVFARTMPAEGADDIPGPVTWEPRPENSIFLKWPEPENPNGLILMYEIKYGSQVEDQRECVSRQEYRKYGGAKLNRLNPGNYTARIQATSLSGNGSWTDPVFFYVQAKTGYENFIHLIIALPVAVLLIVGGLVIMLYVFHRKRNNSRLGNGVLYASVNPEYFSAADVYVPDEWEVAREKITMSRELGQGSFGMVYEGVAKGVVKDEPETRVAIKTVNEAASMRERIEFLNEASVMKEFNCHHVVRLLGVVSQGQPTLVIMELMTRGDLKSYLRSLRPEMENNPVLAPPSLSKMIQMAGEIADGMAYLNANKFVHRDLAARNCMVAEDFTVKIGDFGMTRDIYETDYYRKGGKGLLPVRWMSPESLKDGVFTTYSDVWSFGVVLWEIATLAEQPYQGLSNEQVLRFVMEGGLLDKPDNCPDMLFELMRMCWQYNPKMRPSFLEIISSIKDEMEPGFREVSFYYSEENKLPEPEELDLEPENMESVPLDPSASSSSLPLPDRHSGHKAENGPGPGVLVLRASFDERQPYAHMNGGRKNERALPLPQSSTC

Binder | binding ratio (Analyte 2 / Analyte 1) [1] | IC50 of inhibition of IGF-1-induced OPN secretion (U2OS-TSHR cells) [2] [nM] | Percentage of positive cells [3] [%] | IC50 of inhibition of IGF1R phosphorylation (CHO-S-hIGF1R cells, IGF-1 added, phosphotyrosine IGF1R ELISA) [4] [nM] | Kd [5] [nM] | koff [5] [s⁻¹] | kon [5] [M⁻¹ s⁻¹] | IC50 of inhibition of IGF-1-induced proliferation (NCI-H838 cells) [6] [nM] | Max inhibition (%) (10 µg/mL) of IGF-1-induced proliferation (NCI-H838 cells) [6] | EC50 of internalization (MFI of pHAb-labelled secondary Fab, NCI-H838 cells) [7] [nM] | binding ratio (Analyte 2 / Analyte 1) [8] | Percentage of positive cells [9] [%] | binding ratio (Analyte 2 / Analyte 1) [10] | Kd [11] [nM] | koff [11] [s⁻¹] | kon [11] [M⁻¹ s⁻¹] | binding ratio (Analyte 2 / Analyte 1) [12]
anti-IGF1R antibody 12A4 (antibody, V domains shown) VH: EVQLVQSGGGEIRPGGSLRLSCAASGFTFADYGMSWVRQAPGEGLEWVSEIDWTGGSKLYADSVKGRFTISRDNAKNSLFLQMNSLRAEDTALYYCVRDRGAVSPKYYYYGMDVWGQGTTVTVSS VL: EIVLTQSPSSLSASVGDRVTITCRASQGIRNDLGWYQQKPGKAPKRLIYAASRLQSGVPSRFSGSGSGTDFTLTISSLQPEDFATYYCLQHNSYPYTFGQGTKLEIK | 0.01 | 0.068 | 50.3 | 0.9 | 0.568 | 1.05e-05 | 18400 | 0.045 | 105 | 0.92 | -0.01 | 54.4 | -0.05 | 0.214 | 5.69e-06 | 26600 | -0.01
anti-IGF1R antibody 12D1 (antibody, human IgG1, V domains shown) VH: QVQLVESGGGVVRPGGSLRLSCAASGFTFDDYGMSWVRQVPGKGLEWVSGINWNGGSTDYADSVKGRFTISREKAKNSLYLQMNSLRAEDTALYYCVRDRGAVTRRYYYYGMDVWGQGTTVTVSS VL: DIQMTQSPSSLSASVGDRVTITCRASQDIRNDLGWYQLKPGKAPKRLIYAASRLQSGVPSRFSGSGSGTEFTLTISSLQPEDFATYYCLQHNSYPYTFGQGTKLEIK | 0.01 | 0.096 | 39.3 | 1.3 | 2.79 | 1.8e-05 | 6450 | 0.064 | 145 | 0.66 | 0 | 60.7 | -0.04 | 1.72 | 1.05e-05 | 6120 | 0
anti-IGF1R antibody 10G1 (antibody, human IgG1, V domains shown) VH: QVQLVESGGGLVKPGGSLRLSCAASEFTFSDYYMSWIRQSPGKGLEWVSYISNSGSFTNYADSVKGRFTISRDNAKNSLYLQMNSLRAEDSAIYYCVRDQAPVTSKYYYYGMDVWGQGTTVTVSS VL: EIVLTQSPSSLSASVGDRVTITCRASQGIRNDFAWYQQKPGKAPKRLIYAASRLQRGVPSRFSGSGSGTEFTLTISSLQPEDFATYYCLQHNSYPYTFGQGTKLEIK | -0.03 | 0.13 | 46.4 | 1.2 | 8.57 | 0.000237 | 27600 | 0.091 | 88 | 1.12 | -0.01 | 73.9 | -0.04 | 3.99 | 0.000162 | 40700 | -0.03
anti-IGF1R antibody 10D1 (antibody, human IgG1, V domains shown) VH: QVQLQQSGGGVVRPGGSLRLSCAASGFTFADYGMSWVRQVPGKGLEWVSGINWNGGSTDYADSVKGRFTISRDNAKHSLYLQMNSLRAEDTAFYYCARDRGAVSRRYYYYGMDVWGLGTTVTVSS VL: AIQLTQSPSSLSASVGDRVTITCRASQDIRNDLGWYQLKPGKAPKRLIYAASRLQSGVPSGFSGSGSGTEFTLTISSLQPEDFATYYCLQHNSYPYTFGQGTKLEIK | 0.03 | 0.046 | 36.5 | 1.4 | 2.1 | 1.75e-05 | 8360 | 0.14 | 117 | 0.51 | 0.02 | 64.8 | -0.02 | 1.63 | 1.26e-05 | 7750 | 0.02
